Values of other authors as cited in paper PMC4291147, “Molecular Basis of Histone Tail Recognition by Human TIP5 PHD Finger and Bromodomain of the Chromatin Remodeling Complex NoRC” (Structure(London, England:1993), 2015).
pKd: −log10 of the molar value. Where two headings read alike, the source gives them in different places.

Key:
[1] = biological target: Histone H3 K14ac peptide (Homo sapiens) (UniProt P68431)
[2] = biological target: Histone H3 K14ac peptide (Homo sapiens) (UniProt P68431); experiment: STD-NMR
[3] = biological target: Histone H3 K14ac peptide (Homo sapiens) (UniProt P68431); experiment: ITC

PCAF bromodomain, sequence (Q92831 720-830): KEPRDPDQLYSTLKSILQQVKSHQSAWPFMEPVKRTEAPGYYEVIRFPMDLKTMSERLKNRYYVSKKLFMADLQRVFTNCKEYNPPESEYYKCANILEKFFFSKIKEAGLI
PCAF BRD, sequence (Q92831 723-827): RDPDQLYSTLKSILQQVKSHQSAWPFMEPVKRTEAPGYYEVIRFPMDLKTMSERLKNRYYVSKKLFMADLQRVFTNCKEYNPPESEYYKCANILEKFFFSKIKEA
SMARCA2 bromodomain, sequence (P51531 1375-1509): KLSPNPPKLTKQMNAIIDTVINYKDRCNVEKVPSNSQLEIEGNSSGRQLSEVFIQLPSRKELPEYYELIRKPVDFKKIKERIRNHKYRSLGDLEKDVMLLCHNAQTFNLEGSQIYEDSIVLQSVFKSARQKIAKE
SMARCA4 bromodomain, sequence (P51532 1450-1567): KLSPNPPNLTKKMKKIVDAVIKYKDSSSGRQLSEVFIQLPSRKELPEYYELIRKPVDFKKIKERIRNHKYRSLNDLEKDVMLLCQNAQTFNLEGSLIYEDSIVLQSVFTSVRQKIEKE
SMARCA4 BRD, sequence (P51532 1453-1564): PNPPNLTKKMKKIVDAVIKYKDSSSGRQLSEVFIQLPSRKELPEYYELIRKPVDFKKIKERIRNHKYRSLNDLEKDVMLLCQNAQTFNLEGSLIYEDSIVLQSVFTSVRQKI
SMARCA2 BRD, sequence (P51531 1378-1506): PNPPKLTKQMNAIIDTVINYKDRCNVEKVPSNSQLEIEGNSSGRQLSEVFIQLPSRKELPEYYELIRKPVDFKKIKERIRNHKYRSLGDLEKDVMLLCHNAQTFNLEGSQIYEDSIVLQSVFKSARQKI
PB1 BRD2, sequence (Q86U86 177-287): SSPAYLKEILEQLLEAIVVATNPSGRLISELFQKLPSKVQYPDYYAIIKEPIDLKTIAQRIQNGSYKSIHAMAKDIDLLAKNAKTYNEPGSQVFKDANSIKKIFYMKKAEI
PB1 BRD 2, sequence (Q86U86 177-287): as above

Row | Substance | pKd [1] | pKd [2] | pKd [3]
1 | PB1 BRD2 (from UniProt Q86U86) | 3.30 | – | –
2 | PCAF BRD (from UniProt Q92831) | – | 3.89 | 3.73
3 | PCAF bromodomain (from UniProt Q92831) | – | 3.89 | 3.73
4 | SMARCA2 BRD (from UniProt P51531) | – | – | 3.55

The remaining lines, values ahead:

Row | pKd [1] | pKd [2] | pKd [3] | Substance
5 | – | 3.30 | – | PB1 BRD 2 (from UniProt Q86U86)
6 | – | – | 3.55 | SMARCA2 bromodomain (from UniProt P51531)
7 | – | 2.92 | – | SMARCA4 BRD (from UniProt P51532)
8 | – | 2.92 | – | SMARCA4 bromodomain (from UniProt P51532)
